For the test, the target named is cerFP505 (ceriantharian fluorescent protein with an emission maximum at 505 nm) (deep sea ceriantharian (taxon Spirularia, species not determined)). Nature of the test: SEC; elution profile of purified recombinant cerFP505; conditions as described in refs 43, 44.

Broadly, the stoichiometry N is the number of molecules, sites or subunits per partner or assembly. Regarding “cerFP505 (ceriantharian fluorescent protein with an emission maximum at 505 nm) (natural protein)”, the stoichiometry N was 4.

These data come from publication PMC2582951.
